Measurements: patent publication US5688671A, “Mutant aspartokinase gene” (Ajinomoto Co., Inc., priority 1993, dated 1997)

B1: Thr: mutant aspartokinase 279 Ala→Thr from AJ3463, plasmid p399AK9 (p399AK9B); SEQ ID NO: 4 and 6 (protein)
chain: MEEAVLTGVATDKSEAKVTVLGISDKPGETAKVFRALADAEINIDMVLQNVSSVEDGTTDITFTCPRADGRRAMEILKKLQVQGNWTNVLYDDQVGKVSLVGAGMKSHPGVTAEFMEALRDVNVNIELISTSEIRISVLIREDDLDAAARALHEQFQLGGEDEAVVYAGTGR
B2: Wild type: wild type aspartokinase of Corynebacterium glutamicum ATCC 13869, plasmid p399AKY (p399AKYB); SEQ ID NO: 3 and 5 (protein)
chain: MEEAVLTGVATDKSEAKVTVLGISDKPGEAAKVFRALADAEINIDMVLQNVSSVEDGTTDITFTCPRADGRRAMEILKKLQVQGNWTNVLYDDQVGKVSLVGAGMKSHPGVTAEFMEALRDVNVNIELISTSEIRISVLIREDDLDAAARALHEQFQLGGEDEAVVYAGTGR
B3: Pro: mutant aspartokinase 279 Ala→Pro, plasmid p399AKAP (p399AKAPB) (protein, UniProt P26512 1-421, looked up, variant A279P)
Aspartokinase: MALVVQKYGGSSLESAERIRNVAERIVATKKAGNDVVVVCSAMGDTTDELLELAAAVNPVPPAREMDMLLTAGERISNALVAMAIESLGAEAQSFTGSQAGVLTTERHGNARIVDVTPGRVREALDEGKICIVAGFQGVNKETRDVTTLGRGGSDTTAVALAAALNADVCEIYSDVDGVYTADPRIVPNAQKLEKLSFEEMLELAAVGSKILVLRSVEYARAFNVPLRVRSSYSNDPGTLIAGSMEDIPVEEAVLTGVATDKSEAKVTVLGISDKPGEPAKVFRALADAEINIDMVLQNVSSVEDGTTDITFTCPRSDGRRAMEILKKLQVQGNWTNVLYDDQVGKVSLVGAGMKSHPGVTAEFMEALRDVNVNIELISTSEIRISVLIREDDLDAAARALHEQFQLGGEDEAVVYAGTGR
B4: Ser: mutant aspartokinase 279 Ala→Ser, plasmid p399AKAS (p399AKASB) (protein, UniProt P26512 1-421, looked up, variant A279S)
Aspartokinase: MALVVQKYGGSSLESAERIRNVAERIVATKKAGNDVVVVCSAMGDTTDELLELAAAVNPVPPAREMDMLLTAGERISNALVAMAIESLGAEAQSFTGSQAGVLTTERHGNARIVDVTPGRVREALDEGKICIVAGFQGVNKETRDVTTLGRGGSDTTAVALAAALNADVCEIYSDVDGVYTADPRIVPNAQKLEKLSFEEMLELAAVGSKILVLRSVEYARAFNVPLRVRSSYSNDPGTLIAGSMEDIPVEEAVLTGVATDKSEAKVTVLGISDKPGESAKVFRALADAEINIDMVLQNVSSVEDGTTDITFTCPRSDGRRAMEILKKLQVQGNWTNVLYDDQVGKVSLVGAGMKSHPGVTAEFMEALRDVNVNIELISTSEIRISVLIREDDLDAAARALHEQFQLGGEDEAVVYAGTGR
B5: Asp: mutant aspartokinase 279 Ala→Asp, plasmid p399AKAD (protein, UniProt P26512 1-421, looked up, variant A279D)
Aspartokinase: MALVVQKYGGSSLESAERIRNVAERIVATKKAGNDVVVVCSAMGDTTDELLELAAAVNPVPPAREMDMLLTAGERISNALVAMAIESLGAEAQSFTGSQAGVLTTERHGNARIVDVTPGRVREALDEGKICIVAGFQGVNKETRDVTTLGRGGSDTTAVALAAALNADVCEIYSDVDGVYTADPRIVPNAQKLEKLSFEEMLELAAVGSKILVLRSVEYARAFNVPLRVRSSYSNDPGTLIAGSMEDIPVEEAVLTGVATDKSEAKVTVLGISDKPGEDAKVFRALADAEINIDMVLQNVSSVEDGTTDITFTCPRSDGRRAMEILKKLQVQGNWTNVLYDDQVGKVSLVGAGMKSHPGVTAEFMEALRDVNVNIELISTSEIRISVLIREDDLDAAARALHEQFQLGGEDEAVVYAGTGR

Columns and labels:
aspartokinase = experiment: Aspartokinase (AK) activity of cell-disrupted solutions of Corynebacterium glutamicum strains, with and without L-lysine/L-threonine; assay type: biochemical, Corynebacterium glutamicum (Brevibacterium lactofermentum); settings: for 2 mM Lys + Thr (desensitization degree of inhibition): 2 mM lysine + threonine; for 2 mM Lys + Thr (desensitization degree of inhibition) / 5 mM Lys (desensitization degree of inhibition) / Specific activity / 5 mM Thr (desensitization degree of inhibition): plasmids introduced into AJ12036; for 5 mM Lys (desensitization degree of inhibition): lysine 5 mM; for Specific activity: Table 5; for 5 mM Thr (desensitization degree of inhibition): threonine 5 mM
Source text: When a wild type strain is used as a donor for the DNA fragment containing the AK gene, a DNA fragment containing a wild type AK gene can be obtained. The DNA fragment containing the gene for AK in which synergistic feedback inhibition by L-lysine and L-threonine is substantially desensitized can be obtained by using a mutant strain in which synergistic feedback inhibition on the AK activity by L-lysine and L-threonine is substantially desensitized. The mutant strain can be obtained, for example, from a group of cells subjected to an ordinary mutation treatment, ultraviolet light irradiation, or a treatment with a mutating agent such as N-methyl-N'-nitro-N-nitrosoguanidine (NTG). The AK activity can be measured by using a method described in Miyajima, R. et al., The Journal of Biochemistry (1968), 63(2), 139-148.
Strains were prepared by introducing the wild type AK plasmid p399AKYB and the mutant AK plasmid p399AK9B respectively into AJ12036 strain (FERM P-7559) as a wild type strain of Corynebacterium glutamicum (Brevibacterium lactofermentum). The genes were introduced into Corynebacterium by means of an electric pulse method. The aspartokinase activity was measured for Corynebacterium glutamicum (Brevibacterium lactofermentum) AJ12036 strain as a host, AJ12690 strain harboring the wild type AK plasmid, and AJ12691 (FERM P12918) strain harboring the mutant AK plasmid. The activity was measured in accordance with an ordinary method (see Miyajima, R. et al., The Journal of Biochemistry (1968) 63(2), 139-148). […]
Strains were prepared by introducing 8 kinds of the plasmids shown in Table 3 into AJ12036 strain (FERM P-7559) as a wild type strain of Corynebacterium glutamicum (Brevibacterium lactofermentum) in the same manner as Example 3. The AK activity was measured for each of the strains. […] The desensitization degree of inhibition by lysine and/or threonine was similar to those in Example 6.

[1] = system: Corynebacterium glutamicum (Brevibacterium lactofermentum) AJ12036; experiment: L-lysine productivity evaluated by cultivation in production medium; assay type: cell-based; settings: plasmids introduced into AJ12036; cultivation as in Example 3
Experimental: The lysine productivity was evaluated by cultivation for the wild type strain AJ12036, the wild type AK plasmid-harboring strain AJ12690, and the mutant AK plasmid-harboring strain AJ12691 (FERM P-12918). The evaluation by cultivation was performed by inoculating the strains to a production medium (containing glucose 100 g, (NH4)2 SO4 55 g, KH2 PO4 1 g, MgSO4.7H2 O 1 g, soybean protein acid hydrolysate "Mamenou" (product of Ajinomoto Co., Ltd., trade name) 50 ml, FeSO4.7H2 O 10 mg, MnSO4.4H2 O 10 mg, nicotinic acid amide 5 mg, and CaCO3 50 g in 1 l of pure water, pH 8.0), and cultivating them with reciprocatory shaking at 31.5° C. for 72 hours. […] The plasmid-holding ratio upon completion of the cultivation was measured by using an index of chloramphenicol resistance as a drug resistance marker of the plasmid.
The lysine productivity was further evaluated by cultivation for the 9 kinds of these strains by using a method similar to that in Example 3.

AK [2] = experiment: AK enzyme activity and inhibition by lysine/threonine in cell-free extracts of AK-deficient Escherichia coli Gif106M1 transformants; assay type: biochemical, Corynebacterium glutamicum; settings: for Specific activity: Table 4; for 5 mM Lys + Thr (degree of desensitization of inhibition, activity-holding ratio): lysine 5 mM+threonine 5 mM; for 5 mM Lys + Thr (degree of desensitization of inhibition, activity-holding ratio) / 5 mM Lys (degree of desensitization of inhibition, activity-holding ratio) / 5 mM Thr (degree of desensitization of inhibition, activity-holding ratio): activity without addition = 100%, E. coli Gif106M1 extracts; for 5 mM Lys (degree of desensitization of inhibition, activity-holding ratio): lysine 5 mM; for 5 mM Thr (degree of desensitization of inhibition, activity-holding ratio): threonine 5 mM
Source text: Bacteriol. 112, 84-92 (1972), Theze, J. et al., J. […] It is known that most of genes of bacteria belonging to the genus Corynebacterium are expressed in Escherichia coli. In addition, the AK gene was ligated at a position downstream from lac promoter on pHSG399. Thus it was postulated that the gene could be expressed in Escherichia coli. […] Thus it was confirmed that AK from the bacteria belonging to the genus Corynebacterium was expressed and operated in cells of Escherichia coli. Subsequently, cell-free extracts were prepared from bacterial cells, and the enzyme activity of AK was measured. Upon measurement of the enzyme activity of AK, various concentrations of lysine and threonine were added to enzyme reaction solutions to investigate the degree of inhibition (FIG. 2). […] (Ki value: 0.4 mM→5.0 mM). […] Cell-free extracts were prepared, and enzymes were analyzed.

AK [3] = experiment: Thermal stability of AK, treatment at 55° C. for 1.5 hour; assay type: biochemical, Corynebacterium glutamicum
Experimental: The activity-holding ratio after a treatment at 55° C. for 90 minutes is indicated by %.
Thermal stability was investigated as an index of stability of the enzyme structure constructed by the introduction of mutation. The treatment condition was set at 55° C. for 1.5 hour in which the activity of the wild type AK was about 80%.

[4] = E. coli Gif106M1 cell-free extracts

Molecule | 2 mM Lys + Thr (desensitization degree of inhibition) (aspartokinase) [%] | 5 mM Lys (desensitization degree of inhibition) (aspartokinase) [%] | Specific activity (aspartokinase) [mU/mg protein] | 5 mM Thr (desensitization degree of inhibition) (aspartokinase) [%] | Lys--HCl [1] [g/L] | inhibition by lysine alone as compared with the wild type (AK [2]; [4]) | inhibition by threonine desensitized (AK [2]; [4]) [%] | Specific activity (AK [2]; [4]) [mU/mg protein] | 5 mM Lys + Thr (degree of desensitization of inhibition, activity-holding ratio) (AK [2]) [%] | 5 mM Lys (degree of desensitization of inhibition, activity-holding ratio) (AK [2]) [%] | 5 mM Thr (degree of desensitization of inhibition, activity-holding ratio) (AK [2]) [%] | thermal stability compared with the wild type (AK [3]; FIG. 6) | activity after thermal treatment (activity-holding ratio) (AK [3]) | degree of desensitization of inhibition, ranking (aspartokinase; lysine alone, threonine alone and concerted inhibition, plasmids in AJ12036) | concerted inhibition by lysine+threonine (AK [2]; [4]) | degree of activation by threonine (AK [2]; [4]) | specific activity relative to that of the wild type (AK [2]; fraction of wild type specific activity) | AK activity (AK [2]; [4])
B1 | 78.3 | 58.7 | 374.4 | 109.1 | 24.25 | little improvement | 100 | 12.9 | 50.4 | 47.0 | 103.5 | higher stability than that of the wild type | – | – | – | – | – | –
B2 | 6.2 | 52.7 | 316.4 | 86.8 | 0.00 | – | – | 15.3 | 9.2 | 42.3 | 62.3 | – | about 80% | – | – | – | – | –
B3 | 85.2 | 77.5 | 125.0 | 123.2 | 25.11 | mitigated | – | 2.8 | 103.8 | 76.9 | 126.9 | – | – | highest degree of desensitization of inhibition | desensitized | not less than 120% | about 1/5 | –
B4 | 37.0 | 55.0 | 406.8 | 114.4 | 5.72 | equivalent to that in the wild type | – | 8.2 | 18.4 | 52.6 | 131.6 | – | – | – | enhanced | – | – | –
B5 | – | – | – | – | – | – | – | 1.5 | – | – | – | – | – | – | – | – | – | inactivated
